Test results from patent US20250052751A1 (published 2025).

T1: MHC class II I-A^b molecules purified by affinity chromatography (;mouse, UniProt P14434 24-218; P14483 28-226)
T1 MHC II alpha: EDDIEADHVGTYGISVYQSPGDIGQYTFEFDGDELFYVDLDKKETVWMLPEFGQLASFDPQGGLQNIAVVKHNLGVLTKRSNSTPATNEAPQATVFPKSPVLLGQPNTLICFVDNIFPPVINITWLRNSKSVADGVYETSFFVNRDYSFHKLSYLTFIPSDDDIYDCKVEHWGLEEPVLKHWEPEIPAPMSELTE
T1 MHC II beta: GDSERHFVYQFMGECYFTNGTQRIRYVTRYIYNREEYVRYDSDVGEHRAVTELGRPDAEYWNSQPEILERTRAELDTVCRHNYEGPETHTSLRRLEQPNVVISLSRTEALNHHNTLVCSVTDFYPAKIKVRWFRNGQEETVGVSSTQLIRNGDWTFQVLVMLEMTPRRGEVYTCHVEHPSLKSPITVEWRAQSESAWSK


Target: T1, MHC class II I-A^b molecules purified …
Assay: competitive peptide binding assay on purified I-Ab

Going from GILYLVTPPSVVGGLGVTMV [AQP4 131-150] to VAFKGVWTQAFW [AQP4 p24-35], the IC50 rises from 112 nM to 4880 nM (44-fold). The first is the more potent here.

First: LFAINYTGASMNPARSF [AQP4 p202-218]
Second: LYLVTPPSVVGGLGVT [AQP4 p133-149]
The IC50 of the first is 12-fold lower: 16 nM for the first, 184 nM for the second. The first is the more potent here.

Binder HLFAINYTGASMNPARSFGP [AQP4 201-220] has an IC50 of 28 nM.
